Data reported in the supplement of paper PMC11780869.

These sequences were tested on Bacillus subtilis (assay: cleaved RNA product abundance (RNA/gDNA barcode ratio) relative to median wild-type variant (ratio to wild type); higher = more accumulation of the downstream cleavage product). Conditions: experiment (reporter, strain, medium): exp 4a: truncated aprE reporter, strain BJT201 with 2% xylose (RNase J1 expressed); cleavage site: cggR-gapA (positions -7 to +36 mutated).
Method in brief: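 Cleaved product abundance was measured with barcoded reporter mRNAs (truncated aprE or tetM) carrying mutagenized RNase Y cleavage-site windows in the B. subtilis chromosome. Cultures in LB at 37°C grew from OD600 0.0003 to 0.3. Gel-selected cleaved RNA was reverse transcribed and barcode-sequenced with genomic DNA barcodes, and the RNA:gDNA barcode ratio per construct was scaled to the median construct bearing the unmutated site.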

Question: With “ACAGACGAAGGAGCCGCCAAGAAGTTATTAAGGAATGAATAATCCCTCAATATAAATATCTCTCACTTATTTAAA” as the sequence, how does the “cleaved RNA product abundance” value read?
Answer: The value was 0.107.

Question: For “ACAGACGAAGGAGCCGCAAAGAAGTTATTAAGGGATGAATAGTCCCTCATTATAAATATCTCTCACTTATTTAAA”, which “cleaved RNA product abundance” value is on record?
Answer: The value was 0.235.

Question: Which “cleaved RNA product abundance” value does the source give for “ACAGACGAAGGAGCCGCAAAGAAGTTATTAAGGTACGAATAATCCCTCAATATAAATATCTCTCACTTATTTAAA” here?
Answer: Its value is 0.106.

Question: “ACAGACGAAGGAGCCGCAACGAAGTTATTAAGGGTTGAATAATCCCTCAATATAAATATCTCTCACTTATTTAAA” was tested. Which “cleaved RNA product abundance” value did it give?
Answer: The value was 0.508.

Question: For “ACAGACGAAGGAGCCGCAAAGAAGTTATTAAGGAATGAATAATCCCTCAATCTAAATATCTCTCACTTATTTAAA”, which “cleaved RNA product abundance” value is on record?
Answer: The value was 0.0695.

Question: “ACAGACGAAGGAGCCGCAAAGAAGTTATTAAGGGAGGAATAATCCCTCAAGATAAATATCTCTCACTTATTTAAA” was tested. Which “cleaved RNA product abundance” value did it give?
Answer: Its value is 0.152.

Question: “ACAGACGAAGGAGCCGCAAAGAAGTTATTAAGGAATGAATAATCCCTGAATATAAATATCTCTCACTTATTTAAA” was tested. Which “cleaved RNA product abundance” value did it give?
Answer: The value was 0.0984.

Question: Which “cleaved RNA product abundance” value does the source give for “ACAGACGAAGGAGCCGCAAAGAAGTTACTAAGGGATGAATAATCTCTCAATATAAATATCTCTCACTTATTTAAA” here?
Answer: The value was 0.22.

Question: For “ACAGACGAAGGAGCCGCAAAGAAGTTATTAATGGATTAATAATCCCTCAATATAAATATCTCTCACTTATTTAAA”, which “cleaved RNA product abundance” value is on record?
Answer: Its value is 0.242.

Question: Which “cleaved RNA product abundance” value does the source give for “ACAGACGAAGGAGCCGCAAAGAAGTTATTAAGGGAGAATAATCCCTCAATATAAATATCTCTCACTTATTTAAAG” here?
Answer: Its value is 0.471.

Question: Which “cleaved RNA product abundance” value does the source give for “ACAGACGAAGGAGCCGCAAAGAATTTATTAAGGGATGAATAATGCATCAATATAAATATCTCTCACTTATTTAAA” here?
Answer: Its value is 0.2.

Question: With “ACAGACGAAGGAGCCGCCAAGAAGTTATTAAGGGATGAATAATCCATCAATATAAATATCTCTCACTTATTTAAA” as the sequence, how does the “cleaved RNA product abundance” value read?
Answer: Its value is 0.327.

Question: For “ACAGACGAAGGAGCCGCAAAGAATTTATTAAGGGATGAATAATCCCTTAATATAAATATCTCTCACTTATTTAAA”, which “cleaved RNA product abundance” value is on record?
Answer: Its value is 0.448.

Same assay, conditions: experiment (reporter, strain, medium): exp 6: tetM reporter, strain 168; cleavage site: cggR-gapA (positions -7 to +36 mutated)

Question: How did the “cleaved RNA product abundance” value turn out when “ACAGACGAAGGAGCCGCAAAGAAGTTATTAAGGGATGAATAAGCCCTCAATATAAATATCTCTCACTTATTTAAA” was run?
Answer: Its value is 0.775.

Same assay, conditions: experiment (reporter, strain, medium): exp 8a: truncated aprE reporter, strain BJT201 with 2% xylose (RNase J1 expressed); cleavage site: glnRA (positions -5 to +31 mutated)

Question: For “CGACATGTCCCGCTTCTTTCATTAATTCGTTAGCAACTGTTTTGCTATATACATTTACCGTTTAAGAGGAGGAAT”, which “cleaved RNA product abundance” value is on record?
Answer: Its value is 0.591.

Question: How did the “cleaved RNA product abundance” value turn out when “CGACATGTCCCGCTTCTTTCATTATTCTGTTAGCAACTGTTTTGCTATATACATTTACCTTTTAAGAGGAGGAAT” was run?
Answer: The value was 1.94.

Question: For “CGACATGTCCCGCTTCTTTCATTAATCCGTTAGCAACTGTTTTACTCTATACATTTACCTTTTAAGAGGAGGAAT”, which “cleaved RNA product abundance” value is on record?
Answer: The value was 0.597.

Question: For “CGACATGTCCCGCTTCTTTCATTAATCCGTTACCAACTGTTTTCCTATATACATTTACCTTTTAAGAGGAGGAAT”, which “cleaved RNA product abundance” value is on record?
Answer: Its value is 0.203.

Question: Which “cleaved RNA product abundance” value does the source give for “CGACATGTCCCGCTTCTTTCATTAATCCGTTAGCATCTATTTTGCTATATACATTTACCTTTTAAGAGGAGGAAT” here?
Answer: The value was 1.53.

Question: Which “cleaved RNA product abundance” value does the source give for “CGACATGTCCCGCTTCTTTCATTAATCCGATAGCAACTGTTTTGCTATATACATCTACCTTTTAAGAGGAGGAAT” here?
Answer: Its value is 0.88.

Question: With “CGACATGTCCCGCTTCTTTCATTAATCTGTTAGCAACTGTTTTGCTATATACAGTTACCTTTTAAGAGGAGGAAT” as the sequence, how does the “cleaved RNA product abundance” value read?
Answer: The value was 0.249.

Question: How did the “cleaved RNA product abundance” value turn out when “CGACATGTCCCGCTTCTTTCATTAATCCTTTAGCAACTGTTTTGCTTTATACATTTACCTTTTAAGAGGAGGAAT” was run?
Answer: The value was 0.174.

Question: Which “cleaved RNA product abundance” value does the source give for “CGACATGTCCCGCTTCTTTCATTAATCCGTTAGCAACTTTTTTCCTATATACATTTACCTTTTAAGAGGAGGAAT” here?
Answer: The value was 0.697.

Question: “CGACATGTCCCGCTTCTTTCATTAATCCGTTCGCAACTGTTTTGATATATACATTTACCTTTTAAGAGGAGGAAT” was tested. Which “cleaved RNA product abundance” value did it give?
Answer: The value was 0.334.

Question: How did the “cleaved RNA product abundance” value turn out when “CGACATGTCCCGCTTCTTTCATTAATCCGTTAGCAACTGATTTGCTATATACATTTATCTTTTAAGAGGAGGAAT” was run?
Answer: The value was 1.36.

Question: Which “cleaved RNA product abundance” value does the source give for “CGACATGTCCCGCTTCTTTCATTAATCCGTTATCAACTGTTCTGCTATATACATTTACCTTTTAAGAGGAGGAAT” here?
Answer: The value was 0.213.

Question: With “CGACATGTCCCGCTTCTTTCATTAATCCGTGAGCAGCTGTTTTGCTATATACATTTACCTTTTAAGAGGAGGAAT” as the sequence, how does the “cleaved RNA product abundance” value read?
Answer: The value was 0.231.

Question: With “CGACATGTCCCGCTTCTTTCATTAATCCGTTAGCAACTGTTTTGCTATTTACATTTAACTTTTAAGAGGAGGAAT” as the sequence, how does the “cleaved RNA product abundance” value read?
Answer: Its value is 0.208.

Question: Which “cleaved RNA product abundance” value does the source give for “CGACATGTCCCGCTTCTTTCATTAATCCGTTAGCAACTGTTTTGCTATAAAAATTTACCTTTTAAGAGGAGGAAT” here?
Answer: Its value is 0.405.

Question: With “CGACATGTCCCGCTTCTTTCATTATTCCGTTAGCAACTGTTGTGCTATATACATTTACCTTTTAAGAGGAGGAAT” as the sequence, how does the “cleaved RNA product abundance” value read?
Answer: The value was 0.941.

Question: How did the “cleaved RNA product abundance” value turn out when “CGACATGTCCCGCTTCTTTCATTAATCCGTTAGCAACTGTTTTGCTATACACATTTACATTTTAAGAGGAGGAAT” was run?
Answer: Its value is 0.372.

Question: “CGACATGTCCCGCTTCTTTCATTAATCAATTAGCAACTGTTTTGCTATATACATTTACCTTTTAAGAGGAGGAAT” was tested. Which “cleaved RNA product abundance” value did it give?
Answer: Its value is 0.946.

Question: For “CGACATGTCCCGCTTCTTTCATTAATCCGTTAGCAACTGTTTGGCTATATACATTTACCTTTTAAGAGGAGGAAT”, which “cleaved RNA product abundance” value is on record?
Answer: The value was 0.493.

Question: How did the “cleaved RNA product abundance” value turn out when “CGACATGTCCCGCTTCTTTCATTATTCCGTTAGCAACTGTTTTGCTATATCCATTTACCTTTTAAGAGGAGGAAT” was run?
Answer: Its value is 0.359.

Question: How did the “cleaved RNA product abundance” value turn out when “CGACATGTCCCGCTTCTTTCATTAATCCTTAAGCAACTGTTTTGCTATATACATTTACCTTTTAAGAGGAGGAAT” was run?
Answer: Its value is 0.419.

Question: For “CGACATGTCCCGCTTCTTTCATTATTCCGTTAGCAACTGTTTTGCTTTATACATTTACCTTTTAAGAGGAGGAAT”, which “cleaved RNA product abundance” value is on record?
Answer: Its value is 0.401.
